Data published in the domain aggregation screens of Martell et al. (2025).

Assay: soluble fraction after stress (log2 fold change); higher = more stays soluble; pooled small domains, quantitative proteomics
Settings: stress: 75 degC
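Further: 20 min heating vs room temperature control held 20 min.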

Sequence	soluble fraction (log2)
HMNVVGAKGRIIKISSSEEKMAVAEIEGHGEWNIRTNSEIELFVGKSVEVIEMKGNYLLVNQI	-3.01
HMNVWESVDLRQEQHEAKRRLILKQAALLFADRGFHETTIDQIAEALNVTKPTIYYYIESKEDLLYQVA	-0.135
HMNWQLITDPKELRELVQKTIADNEAGTSRLREGDMGPLEFLTGIIMKKTRGLADPTMVKALLKEELNI	-0.0208
HMNYEFLEKIGFSSNEAKVYGTLIKHKVLNGYEIAKLSGVARSLVYEVINRLVAKGAVIRIDGEPNFYKP	-2.2
HMNYHDTLSYLMDAFGGADNLQKLLGVGPSALSNYRRREHLPLNQARKLSNIAPEFGFNLDPYTLKISVID	-1.62
HMNYKLESYLKKVDDQLNFIPVSDKADILSELKNTFYERLLNGQTEEEILDEMESPRELALSYMSES	-0.00676
HMNYTYTVPEGIRYLRADKALALAFPDHSRTALQRAFDSGLVTLRGVAIKRDQSVTALDTLEFAMPDI	-0.981
HMNYVFVLNEHGVRQTSYVVGLHADTLEKTEKLAKQTYPTSTIISGDSEMQSQFISGKAYVNGEFVDP	-0.713
HMPAFWILAVLAGGRRHGYQIMREAALSSEGLVTLKPTTLYAALERLERDGAIQQDGEEIVDGRVRRYYRI	0.16
HMPAKDAEFTAFVRSATPTLTRTAYLLTGDRETASDLVQEAFVRTYLAWRRVRPEEATAYTRRVLVN	0.321
HMPAPMISIQLNGEPRNVQPGISIAALVREIGLEPAKVAVERNREIVPRSTLGDVLIEAGDQLEIVHFVG	-0.45
HMPAQPEPYNNLARLYSAQGKLDQAASLLRAGLYTDPAYRALFDNLTRIYAEQAARSLSAALD	-1.1
HMPASDPNEKQILRFLTEHQVITRKETQALLDVSQSTAGRVLKAMVDNGQIKQLGGSRNTRYELPM	-0.141
HMPASGISSEIIYDGILIEENLRQLKKDKAWLMDQLKKKGISSVSEVFLATLNKGGSLYIDKY	-0.451
HMPASVSAIRKYLGGGSFKGVGPALAKRIVDAFGEYTIETIENDPKQLAKVKGVSEKMALEINTQ	-0.582
HMPAYYQKEAVLDGRASVFAYERDPSSWYFKQLIPGTKKYRTKKIQGATTLEQAKSQALDIALGLRDEP	-0.0971
HMPDDHFIRGYVTAVLEQVLKVPSIQVEVERGVVILRGDLPGEERQELLDAVSRIHGVARVEYIPL	-0.686
HMPDLSGEEQQIVDILAQRGNLQINTLVVETDIPVHKMNAILFELEMKGVVRVLAGGMYQLL	-1.02
HMPDPLVEIRSAVHSNYAGMIAMLGADNRVYLGREEHYSYQDGQPGQYDNRDGSLLFVSDQPDIYYFL	-1.17
HMPEAITLRDLKTYSKQAASGYLDDHQLVLVEKEAHSEDVPEGQVIKQKPGAGASVKPGDKVEVTFSLGPE	0.0463
HMPEKKKYGDFVSMTEEEYGKLVSEYGQEAAKRMVEILNNYKGATGKPYKSDYLAILNWVVKRIKEE	-0.0863
HMPELFLFNPDTASAATFQALGFSARQAGVLIHFREALGGRFGSVEQFSKSYVVDSATLERLRPYMVF	-4.13
HMPEMHIYTKEGKIHITHIDENEEIKIYNPLGQIIYTGSPQDIPVLEGKGLYIIYIGKSAVEVLES	-2.2
HMPENESPEEKHARFRRFAEGLMARLDENESVRDILPELKVWLDDRELDRDDQRLARNLMLTAGKRE	0.0151
HMPEPLTARETEVLRLLSGGYSNREIAAAMFLAEGTIKNHVSAVLLKLGVRDRTRAVLRGLELGLIQ	-2.27
HMPEPPRVGETLAALRQDRALSLDELSRQAGVSKSMLSQIERNQANPTVAVVWRLANALGVPMAELLGA	-0.272

Sequence	soluble fraction (log2)
HMPGDIRKAAILLMSLPREQAAQVLARLDPKQVEAVTIEIARLGTVTPDEQEQALKEFSQANPA	0.0238
HMPGIDDAAVEHAERVLAQHIGPMARLLVRRTVPRAANLFDLHRRLGALIPESEPRTAFLSAVVT	0.0954
HMPGLSQAEAQSLLIAYLAQQGRTLELIPLGQSGDVWRFSGRESDGTVVSFFMVSRTDGTISEVPVPP	-1.06
HMPGRLSRREVEVIELTARGLPAAEMAVRLGISANTIEFHRRRIMQKLGVANAAEMVRRATELGW	-2.28
HMPGRVITVMVNGKRVDLPFREEPYIFVDLFRYMDFDVERARGRIQLAINGKKAGYTDIIREGDSIEI	-2.54
HMPGTAAQARQLKAWLKENGEKPGAALPALQKAQEIYGYVPREVQQLIADALHKPLTEIYGVSTFYSQFNL	-0.566
HMPGTPADQVAELQTKVGTETKTGDMITQDDVKLLQTALDPLAKMNDRIQAAKILESKGIVTSDGNLRT	0.0421
HMPIGENIKRLRIMHGLSQKELAQIAGVSDKAVSTWENGTKEPRMGAVQKITGYFGLKKSNLIEDNGL	-0.0452
HMPIMDSDDKYEALGIPQEWIAVVKKAGYQTVEALKAVENPNKLHQELSVMNKKEKLGLAGLTPEMVKAWL	0.321
HMPINPKVKQIYDTLKDGGADVGSEKEFNDYFFAKGKDGYNNRKEVFNTLREGGADAGKSYEEFAGWLGL	0.445
HMPIPIESEISRSPGQSIYAFVQQHYGRSGRSPADMRALVGLILRLNRQIRTPLLIPFGLVVVRPT	0.335
HMPIRVGDAFESLAGVFPDEYNKALRKSTKKPVFFVPVKVEAGSGALRQKGKITFIVKDGRIDAIQIAL	-1.41
HMPISQGATVKHNANMRKGASTKYKVTGVLQEGEEVKILSQSNGWYKIQNSDNEKGWTYNTHINASDK	0.0826
HMPKHFIDFSEGEVVSITDGPFKGFDGAISEIDNQKGKVKVMVSMFGRDTSVELDALQVKKV	0.00647
HMPKITTIHIDPEKISKVIGPGGKTVKKIIEETGAKIDIEDTGKIFIAAVNTEAANKAIDMINGIVA	0.101
HMPKLPIIYVLDGHVNKNALTTSGKNKVWIEHELKKHHINSIKDVLIAMTDTEGKFYYQLYD	-1.77
HMPKLSNNHMAVWQAIRSRTAKGEPSTRAVIRDDLKAAGMDTSKHFSRWLTKLIDLGMVVKDGENLSIR	-0.395
HMPKMISPAQIKAIGAKTNNIAKASGVEQAQVYQSAVAHLGINNKSTKELTSQEASKVIEYLSTL	0.103
HMPKPMKATKITLQQEPRIRVDFTYDPLKVQQIKTISGARWSKSLKAWHIPYTKEAFNQLKKLFPNVEIEV	-1.44
HMPKSVRQSFVYSPMYRDVEYLADFLRNNNKDDSSVSASGDKLVYYGTADEIARVKSVLKGVDV	-0.00252
HMPLIPIAIELARHALPSLIGAIAGDKSEKVAKEVVDAALKTTGKTTPDEALHALQADPQLAHEYRLSLL	0.982
HMPLKLIDVYLGRHGKKRYDVFKETGLSQQTLASANGKPAAALTGRILQAIGRTVGETPGRVLDEMLMIEQ	-1.02
HMPLLADLPNLLRKVLKQHPGRVVDVDLERGRQGREIYHVRVLQENGQVRGLFVDASTGELVS	-0.938
HMPLQLPEPMAELARNGETARLAEALKQGLDIDLRDGKGNTLLMIAAYQGRAETVAMLLKAGA	-2.29
HMPLSLESVSEGGRNDTAARIAGYLIAKGLNVDFARFFLQSWNTKNKPPLDDTEIDTIVNSIMKTHERKNQ	-0.858
HMPLTPATADAGRFVKQDRKYIRLLAKRYNFTHGDIKSEIDRVSAVLSSNGIDRVPLFLYKEYLEQYLAG	-2.04

Sequence	soluble fraction (log2)
HMPLTRSDVKRIQLWLMAHGYDIGSPDGVFGDKSNRAANAFLSQQGRSLETVTLGKLYDILEAN	-2.58
HMPMINLYQRLNLPPTASRAEIEAALAQYRSELSTAEIRGVQEWLLVNEVRHRYDAKLRQEQPSFFI	-1.08
HMPMTLGENIARLRTQKDWSQGDLADALGISRQSISKWETDTSIPELEKLIKLSELFGVTLDQLVRGE	-0.406
HMPNILLSVKDASVAISVSSKMVRLLIASGRLKAVNLGKRMTRISLQELTDFAQRQGGNVVLP	-0.123
HMPNLAAAIGARVTIRLREASGGFRDIVGTLQRFGDGVNELLNSKGQIISFSEDEIAIWREIK	-3.33
HMPNQIKQIAVNTASVSDIATIPGISFDFAKEIWEFRILRQKIGSLSELQKIEGMTASKYALIELYLHI	-3.71
HMPNSIKAPAYLHNIARIYDHVLIDVEKASSAYEKLIKKYPNHPLSINAKLYLENAFNRSDEELLNMIKEN	-0.892
HMPNYVEMLRLHEAGFSLRQIAKLVSSGRNTVTRTVNIAQEKELSYEEIAQWSSEELENMFKPD	-2.25
HMPPDIKVVGVTVASDPRASFAMLSSNGKTLSYRVNDLIEGTEYHLIKVEAAAITIATAGGQSTQIAF	-2.54
HMPPFTYHLERAKRKTVGFIVDERGVTVRAPRWVSVSEIEKMLQTKEAWIQKKLTEFHNWQKE	-3.39
HMPPHGHIVELLPEQDFGRIETGDGRLVYFHRNSVLDGDFAQLAVGDAVRFAEEMGERGPQASSVHVE	0.0508
HMPPLKYLKVKSYLEAVAVKAESAMRMPTVRELMNQFNVSLATVNRALSELENDGVIVRRQGSGIVAAG	-0.00508
HMPPSGPWEQDPPSEAQLKPFNEAMKRTADIDVDLYEKAKKALNDGTITKGNIYDWINREDSPWVLQDGS	0.241
HMPPSQRVNRILSLAGITSRRKADEYILEGRVTVNGEVLKEPGAKAVWGTDDIRVDGKPIPALS	0.0835
HMPPSVAETLKRLRRHKSLSLEELAQMSGVSRSMLSQIERDATNPTVATLWRITAALGVSIDEVLGV	-2.43
HMPPTEQVYRSHVPPQYDGFPIEKYFTTRFSYQDVEEWSRQILAGKIEVNGKTALIGQILSASDLTVTRA	-0.895
HMPQETPIPKSEIQSYDEIWLEPISTDNILRNELRGWYHVKDRWVENEFGNRFYLDTYASKWLAFPS	-0.333
HMPQKIVIQKGVVIKKRERSDAWQIYITVKGKKPIRKSANTDNVEKAKQMALTLFAEKNYKVENNLPIQ	-1.17
HMPQLSNEEQKIVDALEGSDGKQINLITVETNIPMARLMSVLFEMEMRGIVKSLNGARYKLN	-1.3
HMPQTDDSEPLGKYGRMRLAYLKNQRPVLYNQMLLNGTLWPHLQDVQKTAYEWLERTMTTLLDK	0.0585
HMPRDQQENIYLLEKGKRLYEEHLGDQRQIIGHRIMIFERILESQDHAQIRRAQSEFAEFLSHYDG	-0.8
HMPRDYYAVLEVSVSSTPVQIRQAYQRLARRYSPDVNFLDRDTEALFEEIVEAYRVLSNPTARTLYDRG	-4.52
HMPREQQENVYLLEKAKRLYEEYLGDQRQTIGHALAQFERVLESQDPAAIRRAQKEFGEFLERYDG	-0.0743
HMPREVKLPPDLLDALEASPEAKAFFLQLSYTHQKEYAQWIEEAKQEATRQRRLEKTVQMLLEGRRT	-1.27
HMPRFDINFKVGEVVTIKGGSFDGQQGEISEIDHEHGKIKVMLEVLGRLTPVEVEHTEIEKI	-0.269
